Source: patent US20160304613A1 (Genentech, published 2016)

How the values were obtained:
human NRP1 [1] = target: T1, human NRP1 (human, UniProt O14786 22-641); test: SPR (BIAcore-3000), IgG immobilized, NRP1 injected, 25 C
T1 construct: range 1-641; Recombinant soluble protein; also called hNRP1; human neuropilin-1
Experimental: (§1) Association rates (kₒₙ) and dissociation rates (koff) were calculated using a simple one-to-one Langmuir binding model (BIAcore Evaluation Software version 3.2). The equilibrium dissociation constant (Kd) was calculated as the ratio koff/kₒₙ.
(§2) (See Materials and Methods).

murine NRP1 [2] = target: T2, murine NRP1 (murine, UniProt P97333 22-641); test: as above
T2 construct: range 1-641; Recombinant soluble protein; also called mNRP1; murine neuropilin-1
Experimental: as §1, §2

human NRP2 [3] = target: T3, human NRP2 (human, UniProt O60462 23-864, limits assumed); test: ELISA, antigen-coated wells (2 µg/ml), IgG at 10 µg/ml, detected with anti-human IgG HRP, OD450nm
T3 construct: Coated on wells in ELISA and injected in SPR; construct not described; also called hNRP2

murine NRP2 [4] = target: T4, murine NRP2 (murine, UniProt O35375 23-864, limits assumed); test: as above
T4 construct: Coated on wells in ELISA and injected in SPR; construct not described; In the Sema3F collapse assay it is the endogenous NRP2 of mouse E17 hippocampal neurons; also called mNRP2

BSA = target: T5, BSA (UniProt P02769 25-607); test: as above
T5 construct: Specificity control antigen

ErbB2-ECD = target: T6, ErbB2-ECD (UniProt P04626 23-652, limits assumed); test: as above
T6 construct: extracellular domain; Specificity control antigen

human NRP1 [5] = target: T1, human NRP1; test: competitive phage ELISA
murine NRP1 [6] = target: T2, murine NRP1; test: competitive phage ELISA
human NRP1 [7] = target: T1, human NRP1; test: competitive phage ELISA, phage-displayed Fab'2, antigen in solution vs immobilized antigen
murine NRP1 [8] = target: T2, murine NRP1; test: as above
human NRP2 [9] = target: T3, human NRP2; test: BIAcore SPR, IgG immobilized on the chip, antigen injected at 500 nM (printed '500nm')
Experimental: as §1

murine NRP2 [10] = target: T4, murine NRP2; test: as above
Experimental: as §1

T2 sequence (P97333 22-641 limits assumed, form in doubt): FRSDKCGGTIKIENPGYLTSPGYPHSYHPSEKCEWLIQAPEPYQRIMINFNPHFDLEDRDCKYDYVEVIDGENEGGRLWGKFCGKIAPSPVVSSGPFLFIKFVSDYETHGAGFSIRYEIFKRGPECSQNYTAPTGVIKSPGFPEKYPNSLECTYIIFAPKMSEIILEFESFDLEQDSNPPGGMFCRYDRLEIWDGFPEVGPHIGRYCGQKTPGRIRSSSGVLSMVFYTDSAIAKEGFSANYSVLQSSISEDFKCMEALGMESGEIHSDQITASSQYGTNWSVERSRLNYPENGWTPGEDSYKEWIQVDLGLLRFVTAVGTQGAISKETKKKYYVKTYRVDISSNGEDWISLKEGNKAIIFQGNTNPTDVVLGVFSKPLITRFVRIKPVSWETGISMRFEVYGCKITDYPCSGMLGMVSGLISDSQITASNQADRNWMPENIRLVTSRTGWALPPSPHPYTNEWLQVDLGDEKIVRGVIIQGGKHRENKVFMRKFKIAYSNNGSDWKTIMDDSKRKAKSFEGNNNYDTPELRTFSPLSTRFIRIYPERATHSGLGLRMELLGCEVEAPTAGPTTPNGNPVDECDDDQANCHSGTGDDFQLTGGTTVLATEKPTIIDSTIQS
T4 sequence (O35375 23-864 limits assumed): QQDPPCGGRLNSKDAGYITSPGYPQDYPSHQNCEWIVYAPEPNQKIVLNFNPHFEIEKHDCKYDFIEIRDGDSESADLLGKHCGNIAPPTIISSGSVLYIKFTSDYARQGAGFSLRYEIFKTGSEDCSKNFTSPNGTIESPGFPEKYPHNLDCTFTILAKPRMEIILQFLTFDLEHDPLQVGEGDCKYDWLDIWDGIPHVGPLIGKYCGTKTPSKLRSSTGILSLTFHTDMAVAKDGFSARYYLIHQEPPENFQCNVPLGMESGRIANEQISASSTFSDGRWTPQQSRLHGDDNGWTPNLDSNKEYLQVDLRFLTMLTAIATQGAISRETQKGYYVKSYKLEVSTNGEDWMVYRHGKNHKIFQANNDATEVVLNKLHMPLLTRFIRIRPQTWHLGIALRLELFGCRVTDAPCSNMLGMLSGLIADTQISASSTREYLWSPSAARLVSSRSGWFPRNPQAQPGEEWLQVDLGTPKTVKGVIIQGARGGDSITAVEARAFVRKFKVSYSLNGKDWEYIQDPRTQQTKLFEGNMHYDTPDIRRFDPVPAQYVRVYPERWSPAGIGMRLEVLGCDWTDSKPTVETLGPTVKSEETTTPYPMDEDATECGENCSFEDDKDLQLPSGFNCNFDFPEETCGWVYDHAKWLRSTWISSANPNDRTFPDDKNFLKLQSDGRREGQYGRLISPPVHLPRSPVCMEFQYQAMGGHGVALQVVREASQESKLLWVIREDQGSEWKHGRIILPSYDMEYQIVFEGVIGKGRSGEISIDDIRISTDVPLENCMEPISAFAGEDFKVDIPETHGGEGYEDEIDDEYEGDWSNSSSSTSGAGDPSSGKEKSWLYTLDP
T3 sequence (O60462 23-864 limits assumed): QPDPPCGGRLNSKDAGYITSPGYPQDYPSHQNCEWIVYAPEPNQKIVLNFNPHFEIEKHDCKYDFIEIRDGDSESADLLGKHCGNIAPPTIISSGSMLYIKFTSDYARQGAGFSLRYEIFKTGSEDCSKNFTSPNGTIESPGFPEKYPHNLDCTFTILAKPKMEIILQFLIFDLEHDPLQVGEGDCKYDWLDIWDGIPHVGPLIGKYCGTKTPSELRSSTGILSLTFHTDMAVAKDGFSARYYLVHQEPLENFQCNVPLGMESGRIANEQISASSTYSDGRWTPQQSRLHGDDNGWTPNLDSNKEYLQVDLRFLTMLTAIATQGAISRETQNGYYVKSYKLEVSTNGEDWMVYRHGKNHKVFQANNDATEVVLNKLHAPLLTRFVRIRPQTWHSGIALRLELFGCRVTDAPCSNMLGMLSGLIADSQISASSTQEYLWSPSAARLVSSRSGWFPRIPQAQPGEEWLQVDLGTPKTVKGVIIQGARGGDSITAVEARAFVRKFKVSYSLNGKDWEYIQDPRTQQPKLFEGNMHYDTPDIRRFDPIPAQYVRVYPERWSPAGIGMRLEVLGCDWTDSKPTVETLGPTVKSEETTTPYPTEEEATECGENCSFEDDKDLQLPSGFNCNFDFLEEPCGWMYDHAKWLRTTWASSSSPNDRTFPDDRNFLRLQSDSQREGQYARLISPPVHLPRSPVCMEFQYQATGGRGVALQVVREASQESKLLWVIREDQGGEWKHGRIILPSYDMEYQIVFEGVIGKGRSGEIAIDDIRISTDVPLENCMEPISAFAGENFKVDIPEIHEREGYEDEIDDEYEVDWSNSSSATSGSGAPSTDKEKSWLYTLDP
T5 sequence (P02769 25-607 limits assumed): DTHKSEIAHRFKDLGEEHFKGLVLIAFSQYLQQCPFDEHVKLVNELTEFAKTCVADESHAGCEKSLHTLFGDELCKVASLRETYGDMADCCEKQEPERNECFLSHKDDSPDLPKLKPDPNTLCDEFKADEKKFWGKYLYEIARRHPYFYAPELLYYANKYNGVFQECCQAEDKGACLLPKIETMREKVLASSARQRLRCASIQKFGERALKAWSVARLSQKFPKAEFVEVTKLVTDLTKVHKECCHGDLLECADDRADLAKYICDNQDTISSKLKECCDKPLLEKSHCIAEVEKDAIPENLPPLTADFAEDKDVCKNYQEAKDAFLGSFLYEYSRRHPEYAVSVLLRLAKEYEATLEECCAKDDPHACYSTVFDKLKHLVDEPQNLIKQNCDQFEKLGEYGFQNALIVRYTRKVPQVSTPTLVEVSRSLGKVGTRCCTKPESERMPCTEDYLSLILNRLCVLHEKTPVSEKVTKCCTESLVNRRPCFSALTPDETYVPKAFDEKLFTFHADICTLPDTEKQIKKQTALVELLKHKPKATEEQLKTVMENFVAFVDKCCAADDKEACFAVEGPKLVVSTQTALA

Molecule | koff (human NRP1 [1]) [s⁻¹] | kon (human NRP1 [1]) [M⁻¹ s⁻¹] | koff (murine NRP1 [2]) [s⁻¹] | kon (murine NRP1 [2]) [M⁻¹ s⁻¹] | binding result (human NRP2 [3]) | binding result (murine NRP2 [4]) | binding result (BSA) | binding result (ErbB2-ECD) | Kd (human NRP1 [1]) [nM] | Kd (murine NRP1 [2]) [nM] | IC50 (human NRP1 [5]) [nM] | IC50 (murine NRP1 [6]) [nM] | IC50 (human NRP1 [7]) [nM] | IC50 (murine NRP1 [8]) [nM] | binding result (human NRP2 [9]) | binding result (murine NRP2 [10])
YW107.4 (antibody) | 0.0011 | 220000 | 0.0015 | 140000 |  |  |  |  |  |  |  |  |  |  |  | 
YW64.3 (antibody, human IgG1, V domains shown, full length human IgG1 (CHO) in ELISA, SPR and FACS; also called anti-NRP1^A; anti-NRP^A) VH: EVQLVESGGGLVQPGGSLRLSCAASGFSFSSEPISWVRQAPGKGLEWVSSITGKNGYTYYADSVKGRFTISADTSKNTAYLQMNSLRAEDTAVYYCARWGKKVYGMDVWGQGTLVTVSS VL: DIQMTQSPSSLSASVGDRVTITCRASQSISSYLAWYQQKPGKAPKLLIYGASSRASGVPSRFSGSGSGTDFTLTISSLQPEDFATYYCQQYMSVPITFGQGTKVEIKR | 0.00012 | 130000 | 0.00045 | 60000 | no binding (tested: 10 µg/ml) | no binding (tested: 10 µg/ml) | no binding (tested: 10 µg/ml) | no binding (tested: 10 µg/ml) | 0.9 | 7.8 | < 70 | < 70 | 0.48 | 3.4 |  | 
YW107.4.87 (antibody, V domains shown, Monovalent Fab on phage in the phage ELISA; also called anti-NRP1^B; anti-NRP^B) VH: EVQLVESGGGLVQPGGSLRLSCAASGFTFSSYAMSWVRQAPGKGLEWVSQISPAGGYTNYADSVKGRFTISADTSKNTAYLQMNSLRAEDTAVYYCARELPYYRMSKVMDVWGQGTLVTVSS VL: DIQMTQSPSSLSASVGDRVTITCRASQYFSSYLAWYQQKPGKAPKLLIYGASSRASGVPSRFSGSGSGTDFTLTISSLQPEDFATYYCQQYLGSPPTFGQGTKVEIKR |  |  |  |  |  |  |  |  |  |  |  |  |  |  | no binding (tested: 500 nM) | no binding (tested: 500 nM)
